Test results reported in patent publication US20210253725A1 (BIONTECH, published 2021).

T1: CD27 expressed on the cell surface of HT1080_CD27 cells (human, UniProt P26842 20-260)
T1 sequence (looked up): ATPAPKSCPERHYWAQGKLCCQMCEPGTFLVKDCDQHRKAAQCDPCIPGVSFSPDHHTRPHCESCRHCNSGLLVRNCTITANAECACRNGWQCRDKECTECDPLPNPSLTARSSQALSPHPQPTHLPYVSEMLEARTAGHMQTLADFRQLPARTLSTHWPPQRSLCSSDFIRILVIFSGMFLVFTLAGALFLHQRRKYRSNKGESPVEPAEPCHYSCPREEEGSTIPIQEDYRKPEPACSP

T2: CD27 protein (His-tagged, Sino Biological Inc. 10039-H08B1) (human, UniProt P26842 20-192)
T2 construct: bought protein coated on ELISA plates; also called TNFRSF7; not shown: His tag
T2 sequence (looked up): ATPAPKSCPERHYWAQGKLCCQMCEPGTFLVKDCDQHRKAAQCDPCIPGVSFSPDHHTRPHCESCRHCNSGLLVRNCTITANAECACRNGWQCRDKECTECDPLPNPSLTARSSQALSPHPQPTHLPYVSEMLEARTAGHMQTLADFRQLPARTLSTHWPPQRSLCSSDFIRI

T3: CD134 expressed on the cell surface of HT1080_OX40 cells (human, UniProt P43489 29-277)
T3 sequence (looked up): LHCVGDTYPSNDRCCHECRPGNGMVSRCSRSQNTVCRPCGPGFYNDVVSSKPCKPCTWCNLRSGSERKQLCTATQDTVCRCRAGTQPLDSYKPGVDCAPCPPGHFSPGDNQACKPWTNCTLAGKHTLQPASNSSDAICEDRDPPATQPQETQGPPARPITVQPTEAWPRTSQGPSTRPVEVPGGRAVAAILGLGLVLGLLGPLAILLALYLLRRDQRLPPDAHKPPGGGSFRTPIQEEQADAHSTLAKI

T4: CD134 protein (His-tagged, Sino Biological Inc. 10481-H08H) (human, UniProt P43489 29-216)
T4 construct: bought protein coated on ELISA plates; also called OX40; TNFRSF4; not shown: His tag
T4 sequence (looked up): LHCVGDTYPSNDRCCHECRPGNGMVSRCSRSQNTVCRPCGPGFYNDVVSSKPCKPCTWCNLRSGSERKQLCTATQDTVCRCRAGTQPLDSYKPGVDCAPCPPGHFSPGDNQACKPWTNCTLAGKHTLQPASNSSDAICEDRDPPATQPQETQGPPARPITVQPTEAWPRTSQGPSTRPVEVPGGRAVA


Experiments:
[1] = target: T1, CD27 expressed on the cell surface of …; assay: cell-based or functional assay
[2] = target: T1, CD27 expressed on the cell surface of …; assay: cell-based or functional assay; remark: listed apart in the source
[3] = target: T1, CD27 expressed on the cell surface of …; assay: HT1080_CD27 cells, imaging; further: test concentration or dose not given here
[4] = target: T2, CD27 protein (His-tagged, Sino …); assay: ELISA, coated His-tagged CD27; further: test concentration or dose not given here
[5] = target: T3, CD134 expressed on the cell surface of …; assay: cell-based or functional assay
[6] = target: T3, CD134 expressed on the cell surface of …; assay: cell-based or functional assay; remark: listed apart in the source
[7] = target: T3, CD134 expressed on the cell surface of …; assay: HT1080_OX40 cells, imaging; further: test concentration or dose not given here
[8] = target: T4, CD134 protein (His-tagged, Sino …); assay: ELISA, coated His-tagged CD134; further: test concentration or dose not given here
Wherever Functional assay Cross-linked by F(ab′)2 fragment IL-8 is given: test concentration or dose not given here.
Wherever Functional assay IL-8 is given: test concentration or dose not given here.

Binder | Functional assay Cross-linked by F(ab′)2 fragment IL-8 [1] [abs. corr.] | Functional assay IL-8 [1] [abs. corr.] | EC 50 (IL-8 release, cross-linked) [2] [µg/mL] | Cellular binding assay [RFU] [3] [RFU] | ELISA [abs. corr.] [4] [abs. corr.] | Functional assay Cross-linked by F(ab′)2 fragment IL-8 [5] [abs. corr.] | Functional assay IL-8 [5] [abs. corr.] | EC 50 (IL-8 release, cross-linked) [6] [µg/mL] | Cellular binding assay [RFU] [7] [RFU] | ELISA [abs. corr.] [8] [abs. corr.]
P018.S.05.A.F05 (as anti-CD27 antibody) (antibody, V domains shown, V regions on human Ig constant parts; also called AB27_92) VH: QSVEESGGRLVTPGTPLTLTCTVSGFSLSNYYMTWVRQAPGKGLEYIGIIGSGVSTYYANWAKGRFTISKASSTTVDLKMTSPTTEDTATYFCARDMYVGNWGDWGLWGQGTLVTVSS VL: AYDMTQTPASVEVAVGGTVTIKCQASQSISNNLNWYQQKPGQPPKLLIYSVSTLASGVPSRFKGSGSGTDYTLTISGVESVDAATYYCQQDYRIGDLDSAFGGGTEVVVK | 2.21 | 0.189 | 0.376 | 11 | 2.31 |  |  |  |  | 
P018.S.04.A.F05 (antibody, V domains shown, V regions on human Ig constant parts; also called AB134_12) VH: QSVEESGGRLVTPGTPLTLTCTVSGIDLSSYTMGWVRQAPGKGLEYIGIIGTSGTTYYSSWAKGRFTISKTSTTVDLKITSPTTEDTATYFCARLGDDYGDFHFNLWGQGTLVTVSS VL: DLVMTQTPASVSEPVGGTVTIKCQASQNIGNYLAWYQQKPGQPPKLLIYAASNLASGVSSRFKGSGSGTEYTLTISDLESADAATYYCQCTYYDSTYFAFGGGTEVVVK |  |  |  |  |  | 2.4 | 0.181 | 0.225 | 368 | 2.44
P018.S.09.A.A02 (antibody, V domains shown, V regions on human Ig constant parts; also called AB27_143) VH: QSVEESGGRLVTPGTPLTLTCTASGFSLSNFYMSWVRQAPGKGLEWIGIISTGGSAYYASWAKGRFTSSKTSTTVDLQITSPTTEDTATYFCARGSGTDGAWLYYGIDLWGPGTLVTVSS VL: DVVMTQTPASVEAAVGGTVTIKCQASENIGHALAWYQQKPGQPPKLLIYRTSTLASGVPSRFSGSGSGTQFSLTISDLDSADAATYFCQINYGGGSGGYFAFGGGTEVVVK | 2.46 | 0.839 | 0.144 | 155 | 2.95 |  |  |  |  | 
P018.S.04.A.G05 (antibody, V domains shown, V regions on human Ig constant parts; also called AB134_14) VH: QSVEESGGRLVTPGTPLTLTCTVSGFSLSTYYMSWVRQAPGKSLEWIGCIHGDDGSTWYASWVQGRFTISKASTTVDLQIASPTTEDTATYFCARGLPYWPNDGDFNLWGQGTLVTVSS VL: TQVLTQTPSPVSAAVGGTVSISCQSSQSVYNNNWLSWFQQKPGQPPKLLVYGASTLASGVPSRFKGSGSGTQFTLTISDLESDDAATYYCAGGYYTTSDNGFGGGTEVVVK |  |  |  |  |  | 2.41 | -0.022 | 0.669 | 451 | 2.87
P018.S.03.A.E03 (antibody, V domains shown, V regions on human Ig constant parts; also called AB134_4) VH: QSVEESGGRLVTPGTPLTLTCTVSGFSLSTYGMSWVRQAPGKGLEWIGIIDAGDSPYYASWVKGRFTISKTSTTVDLKITSLTTEDTATYFCARIAGSNHGPFSLWGPGTLVTVSS VL: DVVMTQTPASVSEPVGGTVTINCQASEFISNYLAWYQQKPGQPPKLLIYGASTLASGVPSRFSGSGSGTQFTLTISDLESDDAATYYCQCTAYGSGYVGFGGGTEVVVK |  |  |  |  |  | 2.54 | 0.314 | 0.529 | 419 | 2.72
P018.S.01.A.H06 (antibody, V domains shown) VH: QEQLKESGGRLVKPDETLTITCTASGFSLSRYDMSWVRQAPGKGLEWIGSIWSDGDTDYANWAKGRFTISKTSTTVDLKITSPTTEDTATYFCARGYTAWSLWGPGTLVTVSS VL: ALVMTQTPSPVSAAVGGTVTISCQSSESVVGNNALSWFQQKPGQPPKLLNYQASTLASGVSSRFSGSGSGTQFTLTISGVQSDDAATYYCQGTYYSSGWYFAFGGGTEVVVK |  |  | 2.35 |  |  |  |  |  |  | 

Now from value to binder:

Functional assay Cross-linked by F(ab′)2 fragment IL-8 [1] [abs. corr.] | Functional assay IL-8 [1] [abs. corr.] | EC 50 (IL-8 release, cross-linked) [2] [µg/mL] | Cellular binding assay [RFU] [3] [RFU] | ELISA [abs. corr.] [4] [abs. corr.] | Functional assay Cross-linked by F(ab′)2 fragment IL-8 [5] [abs. corr.] | Functional assay IL-8 [5] [abs. corr.] | EC 50 (IL-8 release, cross-linked) [6] [µg/mL] | Cellular binding assay [RFU] [7] [RFU] | ELISA [abs. corr.] [8] [abs. corr.] | Binder
2.32 | 0.273 | 1.27 | 133 | 2.89 |  |  |  |  |  | P018.S.10.A.F04 (antibody, V domains shown, V regions on human Ig constant parts; also called AB27_180) VH: QSVEESGGRLVTPGTPLTLTCTASGFYLSSHYMSWVRQAPGKGLEWIGIIYATGIASYANWAKGRFTISKTSTTVSLKMTSPTTEDTATYFCARYDSQDYYGYGNLWGPGTLVTVSS VL: AYDMTQTPASVEVAVGGTVTIKCQASQNIYNNLAWYQQKPGQRPKLLIYRASTLASGVSSQFKGSGSGTEYTLTISGVESADAATYYCQQGYSVHDVYNTFGGGTEVVVK
2.25 | 2.19 | 0.387 | 113 | 3.09 |  |  |  |  |  | P018.S.09.A.A06 (antibody, V domains shown, V regions on human Ig constant parts; also called AB27_146) VH: QEQLKESGGGLVQPGESLTLTCTASGFSLSSYYMSWVRQAPGKGLEWIGMISTGGSAYYANWARGRFTISRTSTTVDLKVTSLTTEDTATYFCARGWRYEDLWGQGTLVTVSS VL: AQVLTQTPSPVSAAVGSTVTINCQSSQTVYNNNYLAWYQQKPGQPPKLLIYDASNLASGVSSRFSGSGSGTQFTLTISDLESDDAATYYCQGTYYDNAWYHTFGGGTEVVVK
2.28 | 0.631 | 0.414 | 238 | 2.9 |  |  |  |  |  | P018.S.10.A.C02 (antibody, V domains shown, V regions on human Ig constant parts; also called AB27_171) VH: QSVEESGGRLVTPGTPLTLTCTVSGIDLSNYAMSWVRQTPGKGLEWIGAIGIGGNTYYASWAKGRFTISRTSTMVDLKVASPTPEDTATYFCARHAGAGVVNWLDLWGQGTLVTVSS VL: DVVMTQTPASVSEPVGGTVTIKCQASQSIGSNLAWYQQKPGQPPKLLIYAASDLASGVPSRFSGSGSGTEFTLTISGVQSDDAATFYCQTYGSGSFSSFNLFGGGTEVVVK
2.06 | 1.02 | 0.513 | 198 | 2.81 |  |  |  |  |  | P018.S.10.A.A03 (antibody, V domains shown, V regions on human Ig constant parts; also called AB27_163) VH: QSLEESGGRLVTPGTPLTLTCTVSGIDLSSYAMGWVRQAPGKGLEWIGTISTISNTYYASWANGRFTISKTSTTVDLKMTSLTASDTATYFCARGASNTINDYFNLWGQGTLVTVSS VL: DIVMTQTPASVSEPVGGTVTIKCQASQSVGNYLAWYQQKPGQPPKLLIYDASNLASGVSSRFKGSGFATEFILTISDLESTDAATYYCHSYVYSSGNVYNGFGGGTEVVVK
 |  |  |  |  | 2.19 | 0.13 | 0.745 | 570 | 2.04 | P018.S.12.A.G05 (antibody, V domains shown, V regions on human Ig constant parts; also called AB134_87) VH: QSVEESGGRLVTPGTPLTLTCTVSGFSLSTYGMSWVRQAPGKGLEWIGIIDGGDSPYYASWAEGRFTISKTSTTVDLKITSPTTEDTATYFCARIAGSNHGPFDLWGPGTLVTVSS VL: DVVMTQTPASVSEPVGGTVTINCQASEFISNYLAWYQQKPGQPPKLLIYGASTLASGVPSRFKGSGSGTDFTLTISDLESADAATYYCQCTAYGSSYVGFGGGTEVVVK
2.07 | -0.032 | 1.94 | 19 | 2.24 |  |  |  |  |  | P018.S.10.A.B03 (antibody, V domains shown, V regions on human Ig constant parts; also called AB27_168) VH: QSLEESGGRLVTPGTPLTLTCTASGFSLSSYDMGWVRQAPGKGLEWIGIISSSGSTYYASWAKGRFTISKTSSTTVDLKMTSLTTEDTATYFCARTSLDGNLWGQGTLVTVSS VL: AFEMTQTPSSVSEPVGGTVTIKCQASQSIYNYLSWYQQKPGQPPKLLIYDASALASGVPSRFKGSGSGTDFTLTISDLESADAATYYCQQDYSVSDVDNSFGGGTEVVVK
